In PMC5959753 (Cell chemical biology, 2018):
Numbering of substitutions follows the chain as printed. Like-named read-outs stand apart in the source and are kept apart here.

B1: Neurospora crassa C-S lyase Egt2, wild type (enzyme, UniProt A7UX13 1-473, looked up)
chain: MVATTVELPLQQKADAAQTVTGPLPFGNSLLKEFVLDPAYRNLNHGSFGTIPSAIQQKLRSYQTAAEARPCPFLRYQTPVLLDESRAAVANLLKVPVETVVFVANATMGVNTVLRNIVWSADGKDEILYFDTIYGACGKTIDYVIEDKRGIVSSRCIPLIYPAEDDDVVAAFRDAIKKSREEGKRPRLAVIDVVSSMPGVRFPFEDIVKICKEEEIISCVDGAQGIGMVDLKITETDPDFLISNCHKWLFTPRGCAVFYVPVRNQHLIRSTLPTSHGFVPQVGNRFNPLVPAGNKSAFVSNFEFVGTVDNSPFFCVKDAIKWREEVLGGEERIMEYMTKLAREGGQKVAEILGTRVLENSTGTLIRCAMVNIALPFVVGEDPKAPVKLTEKEEKDVEGLYEIPHEEANMAFKWMYNVLQDEFNTFVPMTFHRRRFWARLSAQVYLEMSDFEWAGKTLKELCERVAKGEYKESA
modifications: PLP covalently bound to K247 (internal aldimine); selenomethionine in the derivative crystals used for the final structure
B2: Neurospora crassa C-S lyase Egt2 Y134F (enzyme, UniProt A7UX13 1-473, looked up)
chain: B1 chain with Y134F
modifications: PLP covalently bound to K247 (internal aldimine)

Key:
[1] = target: the molecule itself; test: crystal structure
[2] = target: the molecule itself; test: crystal structure; remark: listed apart in the source

| Protein | stoichiometry N [1] | stoichiometry N [2] |
| --- | --- | --- |
| B1 | 2 | – |
| B2 | – | 2 |
